Measured values: US20140356358A1 (Amgen, published 2014)
Numbering of substitutions follows the chain as printed. In names and notes the source's numbering stands.

B1: L5 isolate with insertion SEQ ID NO: 392 (other)
chain: EPKSCDKTHTCPPCPAPELLGGPSVFLFPPKPKDTLMISRTPEVTCVVVDVSHEDPEVKFNWYVDGVEVHNAKTKPREEQYNSTYRVVSVLTVLHQDWLNGKEYKCKVSNKALPAPIEKTISKAKGQPREPQVYTLPPSRDELTKNQVSLTCLVKGFYPSDIAVEWESNGGCPHMFPWCGGGQPENNYKTTPPVLDSDGSFFLYSKLTVDKSRWQQGNVFSCSVMHEALHNHYTQKSLSLSPGK
B2: L5 isolate with insertion SEQ ID NO: 423 (other)
chain: B1 chain with P173N, M175E, F176E, P177T, W178F
B3: L5 isolate with insertion SEQ ID NO: 421 (other)
chain: B1 chain with P173N, H174P, M175H, F176R, P177T, W178P
B4: L5 isolate with insertion SEQ ID NO: 438 (other)
chain: B1 chain with P173K, H174S, F176I, P177S, W178M
B5: L5 isolate with insertion SEQ ID NO: 411 (other)
chain: B1 chain with P173N, H174M, M175L, F176W, P177G, W178S
B6: L5 isolate with insertion SEQ ID NO: 413 (other)
chain: B1 chain with P173M, H174T, M175Q, F176Y, P177N
B7: L5 isolate with insertion SEQ ID NO: 404 (other)
chain: B1 chain with P173M, H174M, M175E, P177A, W178Q
B8: L5 isolate with insertion SEQ ID NO: 428 (other)
chain: B1 chain with P173E, H174M, M175E, F176N, P177A
B9: L5 isolate with insertion SEQ ID NO: 418 (other)
chain: B1 chain with P173I, H174T, M175E, P177S, W178H
B10: L5 isolate with insertion SEQ ID NO: 415 (other)
chain: B1 chain with P173Y, H174I, M175T, F176Q, P177K, W178L
B11: L5 isolate with insertion SEQ ID NO: 398 (other)
chain: B1 chain with P173Q, H174L, M175G, F176S, P177M, W178H
B12: L5 isolate with insertion SEQ ID NO: 417 (other)
chain: B1 chain with P173T, H174E, M175Q, F176V, P177M
B13: L5 isolate with insertion SEQ ID NO: 424 (other)
chain: B1 chain with P173Q, H174Y, M175P, F176R, P177K, W178L
B14: L5 isolate with insertion SEQ ID NO: 395 (other)
chain: B1 chain with P173I, H174L, M175N, P177Y, W178G
B15: L5 isolate with insertion SEQ ID NO: 412 (other)
chain: B1 chain with P173M, H174Q, M175P, F176W, P177A, W178F
B16: L5 isolate with insertion SEQ ID NO: 403 (other)
chain: B1 chain with H174A, M175N, F176W, P177G, W178T
B17: L5 isolate with insertion SEQ ID NO: 419 (other)
chain: B1 chain with P173Q, H174N, M175R, F176S, P177Y
B18: L5 isolate with insertion SEQ ID NO: 396 (other)
chain: B1 chain with P173R, H174E, M175P, F176H, W178F
B19: L5 isolate with insertion SEQ ID NO: 414 (other)
chain: B1 chain with P173V, H174N, M175T, F176W, P177W, W178S
B20: L5 isolate with insertion SEQ ID NO: 433 (other)
chain: B1 chain with P173E, H174I, M175P, F176H, P177S, W178F
B21: L5 isolate with insertion SEQ ID NO: 408 (other)
chain: B1 chain with P173Q, H174K, M175G, F176W, P177V, W178F
B22: L5 isolate with insertion SEQ ID NO: 436 (other)
chain: B1 chain with P173A, H174E, M175R, F176Q, P177Y, W178Y
B23: L5 isolate with insertion SEQ ID NO: 431 (other)
chain: B1 chain with P173N, H174E, M175P, F176K, P177Y, W178V
B24: L5 isolate with insertion SEQ ID NO: 422 (other)
chain: B1 chain with P173Q, M175S, F176P, W178L
B25: L5 isolate with insertion SEQ ID NO: 405 (other)
chain: B1 chain with P173Q, M175H, F176I, P177M, W178Q
B26: L5 isolate with insertion SEQ ID NO: 402 (other)
chain: B1 chain with P173E, H174L, M175Q, F176E, P177R
B27: L5 isolate with insertion SEQ ID NO: 399 (other)
chain: B1 chain with P173Y, H174E, M175N, F176K, P177T, W178L
B28: L5 isolate with insertion SEQ ID NO: 429 (other)
chain: B1 chain with H174P, M175W, F176P, P177E, W178R
B29: L5 isolate with insertion SEQ ID NO: 397 (other)
chain: B1 chain with H174F, M175E, P177T, W178Q
B30: L5 isolate with insertion SEQ ID NO: 432 (other)
chain: B1 chain with P173D, H174R, M175P, F176V, P177W, W178F
B31: L5 isolate with insertion SEQ ID NO: 420 (other)
chain: B1 chain with P173H, H174G, M175T, F176K, P177Q, W178F
B32: L5 isolate with insertion SEQ ID NO: 434 (other)
chain: B1 chain with P173M, H174P, M175Y, F176E, P177M, W178H
B33: L5 isolate with insertion SEQ ID NO: 430 (other)
chain: B1 chain with P173H, H174D, M175P, F176E, W178F
B34: L5 isolate with insertion SEQ ID NO: 393 (other)
chain: B1 chain with P173G, M175G, F176W, P177I, W178F
B35: L5 isolate with insertion SEQ ID NO: 435 (other)
chain: B1 chain with P173K, H174R, M175E, F176N, W178Y
B36: L5 isolate with insertion SEQ ID NO: 416 (other)
chain: B1 chain with P173E, H174T, M175H, F176Y, P177T, W178Y
B37: L5 isolate with insertion SEQ ID NO: 425 (other)
chain: B1 chain with P173I, H174G, M175P, P177W
B38: L5 isolate with insertion SEQ ID NO: 406 (other)
chain: B1 chain with P173Y, H174Q, M175H, F176H, P177M, W178E
B39: L5 isolate with insertion SEQ ID NO: 426 (other)
chain: B1 chain with P173M, H174Q, M175P, F176W, P177I, W178N
B40: L5 isolate with insertion SEQ ID NO: 409 (other)
chain: B1 chain with P173V, H174Y, M175D, F176V, P177K, W178K
B41: L6B isolate with insertion SEQ ID NO: 455 (other)
chain: EPKSCDKTHTCPPCPAPELLGGPSVFLFPPKPKDTLMISRTPEVTCVVVDVSHEDPEVKFNWYVDGVEVHNAKTKPREEQYNSTYRVVSVLTVLHQDWLNGKEYKCKVSNKALPAPIEKTISKAKGQPREPQVYTLPPSRDELGGCVSAATSRTCGGTKNQVSLTCLVKGFYPSDIAVEWESNGQPENNYKTTPPVLDSDGSFFLYSKLTVDKSRWQQGNVFSCSVMHEALHNHYTQKSLSLSPGK
B42: L5 isolate with insertion SEQ ID NO: 401 (other)
chain: B1 chain with P173M, H174V, M175P, P177S, W178M
B43: L5 isolate with insertion SEQ ID NO: 437 (other)
chain: B1 chain with P173N, H174V, M175L, F176D, P177L, W178F
B44: L5 isolate with insertion SEQ ID NO: 442 (other)
chain: B1 chain with P173N, H174V, M175L, F176D, P177L, W178F
B45: L5 isolate with insertion SEQ ID NO: 407 (other)
chain: B1 chain with P173M, H174V, M175P, P177S, W178M

molecular target: T1, human neonatal Fc receptor (hFcRn) (human, UniProt P55899 24-290; P61769 21-119); experiment: phage ELISA pH 6
T1 construct: Biotinylated in the ELISA, Octet and yeast assays; also called human FcRn; huFcRn
T1 sequence (P55899 24-290 limits assumed, chain 1 of 2): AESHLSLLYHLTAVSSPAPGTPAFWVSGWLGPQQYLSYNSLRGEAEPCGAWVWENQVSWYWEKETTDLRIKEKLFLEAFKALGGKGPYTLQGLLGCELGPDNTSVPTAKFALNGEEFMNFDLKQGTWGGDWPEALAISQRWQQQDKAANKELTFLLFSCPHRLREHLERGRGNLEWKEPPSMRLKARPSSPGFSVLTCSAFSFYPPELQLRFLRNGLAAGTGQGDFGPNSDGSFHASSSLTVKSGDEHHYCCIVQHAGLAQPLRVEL
T1 sequence (P61769 21-119 limits assumed, chain 2 of 2): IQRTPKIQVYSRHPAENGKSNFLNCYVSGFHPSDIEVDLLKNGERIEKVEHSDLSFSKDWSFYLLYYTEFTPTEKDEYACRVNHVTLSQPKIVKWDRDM
Procedure: (§1) Approximately 100 μL of biotinylated human FcRn at 2 μg/mL was added to the wells of MAXISORP™ plates coated with 10 μg/mL streptavidin. After washing with PBS plus 0.05% Tween 20 (PBST) five times, phage from the overnight cultures in MES buffer at pH 6.0 or pH 7.4 were added to the plates and incubated at room temperature for 1 hr. A horseradish peroxidase (HRP)-conjugated anti-M13 antibody was used to detect the binding phage, and the plates were scored by a microtiter plate reader using a wavelength in the visible range.
(§2) Binding was assessed by a quantitative enzyme-linked immunoadsorbent assay (ELISA). The ELISA scores reflect binding affinity, with higher scores meaning higher affinity. Typically, scores higher than about 3˜5 indicate binding above background. For library L5, the insertions are between the N169 and G170 according to the numbering in FIG. 2. For libraries 6A and 6B, the insertions are between L143 and T144 according to the numbering in FIG. 2.
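Further: higher score means stronger binding and above about 3 to 5 exceeds background.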

Compared with B1, B2 is lower in ELISA score: 95.1 for the first, 60.2 for the second.

First: B3
Second: B4
The ELISA score of the first is higher: 60.9 for the first, 55.2 for the second.

Going from B5 to B6, the ELISA score falls from 68.6 to 65.6.

First: B7
Second: B8
The ELISA score of the first is higher: 74.2 for the first, 58.5 for the second.

First: B9
Second: B10
The ELISA score of the first is lower: 61.2 for the first, 63.6 for the second.

Compared with B11, B12 is lower in ELISA score: 86.5 for the first, 62.2 for the second.

Compared with B13, B14 is higher in ELISA score: 59.6 for the first, 89.5 for the second.

First: B15
Second: B16
The ELISA score of the first is lower: 67.4 for the first, 74.8 for the second.

Going from B17 to B18, the ELISA score rises from 61 to 88.6.

Compared with B19, B20 is lower in ELISA score: 65.2 for the first, 57.2 for the second.

First: B21
Second: B22
The ELISA score of the first is higher: 72 for the first, 55.5 for the second.

Compared with B23, B24 is higher in ELISA score: 57.7 for the first, 60.3 for the second.

Going from B25 to B26, the ELISA score rises from 73.4 to 75.5.

Compared with B27, B28 is lower in ELISA score: 86.3 for the first, 58.3 for the second.

Going from B29 to B30, the ELISA score falls from 87.3 to 57.7.

Going from B31 to B32, the ELISA score falls from 61 to 56.7.

Compared with B33, B34 is higher in ELISA score: 57.7 for the first, 92.1 for the second.

Going from B35 to B36, the ELISA score rises from 55.6 to 63.

First: B37
Second: B38
The ELISA score of the first is lower: 59.2 for the first, 73.1 for the second.

First: B39
Second: B40
The ELISA score of the first is lower: 59.2 for the first, 71.2 for the second.

molecular target: T1, human neonatal Fc receptor (hFcRn); experiment: phage ELISA pH 7.4
Procedure: as §1, §2

Compared with B41, B1 is higher in ELISA score: 0.3 for the first, 15.1 for the second.

First: B42
Second: B2
The ELISA score of the first is higher: 0.6 for the first, 0.4 for the second.

Going from B3 to B4, the ELISA score falls from 0.3 to 0.2.

Compared with B5, B6 is lower in ELISA score: 0.6 for the first, 0.5 for the second.

Compared with B7, B8 is lower in ELISA score: 2.3 for the first, 0.5 for the second.

Compared with B9, B43 is lower in ELISA score: 0.4 for the first, 0.3 for the second.

First: B10
Second: B11
The ELISA score of the first is higher: 0.7 for the first, 0.4 for the second.

B12 and B13 are the same in ELISA score: 0.3 for the first, 0.3 for the second.

Compared with B14, B15 is lower in ELISA score: 23.5 for the first, 0.4 for the second.

First: B16
Second: B17
The ELISA score of the first is higher: 0.5 for the first, 0.3 for the second.

First: B44
Second: B18
The ELISA score of the first is lower: 0.3 for the first, 8.9 for the second.

Going from B19 to B20, the ELISA score rises from 0.3 to 0.7.

First: B21
Second: B22
The ELISA score of the first is lower: 0.4 for the first, 1.4 for the second.

Going from B23 to B24, the ELISA score falls from 0.5 to 0.3.

Going from B25 to B26, the ELISA score falls from 0.4 to 0.3.

First: B27
Second: B28
The ELISA score of the first is higher: 1.6 for the first, 0.3 for the second.

Going from B29 to B30, the ELISA score falls from 1.8 to 0.5.

First: B31
Second: B32
The ELISA score of the first is higher: 0.5 for the first, 0.4 for the second.

First: B33
Second: B34
The ELISA score of the first is lower: 0.4 for the first, 28.4 for the second.

First: B35
Second: B36
The ELISA score of the first is higher: 0.7 for the first, 0.5 for the second.

Compared with B37, B45 is higher in ELISA score: 0.3 for the first, 0.6 for the second.

First: B38
Second: B39
The ELISA score of the first is higher: 0.4 for the first, 0.3 for the second.

B40 gave an ELISA score of 0.7.
